Laboratory results from IntAct's records for PubMed 24863370.

B1: Calvin cycle protein CP12, chloroplastic (Chlamydomonas reinhardtii), A6Q0K5 (parent)
chain: MMLTKSVVISRPAVRPVSTRRAVVVRASGQPAVDLNKKVQDAVKEAEDACAKGTSADCAVAWDTVEELSAAVSHKKDAVKADVTLTDPLEAFCKDAPDADECRVYED
partner: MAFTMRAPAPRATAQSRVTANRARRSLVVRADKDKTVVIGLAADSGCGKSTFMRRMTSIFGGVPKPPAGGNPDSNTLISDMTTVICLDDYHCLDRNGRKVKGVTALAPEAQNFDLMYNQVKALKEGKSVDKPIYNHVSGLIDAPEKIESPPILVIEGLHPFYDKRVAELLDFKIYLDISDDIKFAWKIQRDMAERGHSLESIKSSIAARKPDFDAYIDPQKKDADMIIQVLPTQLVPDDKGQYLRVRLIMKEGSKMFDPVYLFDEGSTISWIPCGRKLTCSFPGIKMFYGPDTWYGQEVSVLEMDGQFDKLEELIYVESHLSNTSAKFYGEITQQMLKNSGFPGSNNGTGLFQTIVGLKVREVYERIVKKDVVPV
B2: Calvin cycle protein CP12, chloroplastic (Chlamydomonas reinhardtii), A6Q0K5 (parent)
chain: B1 chain
partner: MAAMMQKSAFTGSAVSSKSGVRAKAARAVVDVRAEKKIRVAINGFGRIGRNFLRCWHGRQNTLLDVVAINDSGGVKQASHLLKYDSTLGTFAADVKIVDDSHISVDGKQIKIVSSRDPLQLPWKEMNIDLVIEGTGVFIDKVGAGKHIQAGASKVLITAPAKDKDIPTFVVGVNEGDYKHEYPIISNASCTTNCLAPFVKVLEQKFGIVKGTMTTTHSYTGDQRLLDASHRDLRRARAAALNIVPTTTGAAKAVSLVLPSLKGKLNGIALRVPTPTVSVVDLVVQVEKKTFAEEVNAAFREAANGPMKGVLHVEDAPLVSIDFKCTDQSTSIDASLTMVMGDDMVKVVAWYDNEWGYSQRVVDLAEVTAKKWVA

Variants of: B1
Conditions: with kppr_chlre PRKA

Variant	effect of a mutation on the interaction
MMLTKSVVISRPAVRPVSTRRAVVVRASGQSAVDLNKKVQDAVKEAEDACAKGTSADCAVAWDTVEELSAAVSHKKDAVKADVTLTDPLEAFCKDAPDADECRVYED	decreasing interaction

Variants of: B2
Conditions: with g3pa_chlre GAPA

Variant	effect of a mutation on the interaction
MMLTKSVVISRPAVRPVSTRRAVVVRASGQPAVDLNKKVQDAVKEAEDACAKGTSADCAVAWDTVEELSAAVSHSKDAVKADVTLTDPLEAFCKDAPDADECRVYED	decreasing interaction
